The results in this text go back to patent US20250066451A1.

Assay [1] concerns the target IL-1R-I on cells (TF-1 cells, NHDF cells, human whole blood) (human) (UniProt P14778). Description: cell-based or functional assay.
Assay [2] deals with human IL-1R-I on Normal Human Dermal Fibroblasts (NHDF) cells (human) (UniProt P14778). Description: cell-based or functional assay.
Sequence of human IL-1R-I on Normal Human Dermal Fibroblasts (NHDF) cells (human) (P14778 18-569): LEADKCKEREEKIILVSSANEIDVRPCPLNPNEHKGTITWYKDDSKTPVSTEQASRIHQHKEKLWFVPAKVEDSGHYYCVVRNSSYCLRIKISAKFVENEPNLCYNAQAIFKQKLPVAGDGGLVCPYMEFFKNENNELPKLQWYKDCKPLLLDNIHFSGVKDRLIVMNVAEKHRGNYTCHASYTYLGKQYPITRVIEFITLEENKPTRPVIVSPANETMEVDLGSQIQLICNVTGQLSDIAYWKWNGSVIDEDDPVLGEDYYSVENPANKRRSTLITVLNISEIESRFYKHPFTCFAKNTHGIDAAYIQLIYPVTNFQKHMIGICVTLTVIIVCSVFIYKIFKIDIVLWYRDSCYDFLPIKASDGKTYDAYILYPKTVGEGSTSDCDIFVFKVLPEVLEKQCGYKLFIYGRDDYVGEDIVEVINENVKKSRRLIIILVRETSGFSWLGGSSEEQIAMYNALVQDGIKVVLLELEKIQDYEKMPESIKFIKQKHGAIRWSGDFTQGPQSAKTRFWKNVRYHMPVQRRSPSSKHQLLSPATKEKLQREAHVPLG

Sequence of IL-1R-I on cells (TF-1 cells, NHDF cells, human whole blood) (human) (P14778 18-569): as above

In assay [1], “anakinra (Kineret, Sobi) (from UniProt P18510 26-177) (ligand)” had an IC50, inhibition of IL-1B induced proliferation of TF-1 cells of 50 pM; a median IC50, IL-1B induced IL-6 release in human whole blood of 310 pM; a median IC50, IL-1B induced IL-6 release in human whole blood (legend of FIG. 3) of 300 pM.

For “anakinra (from UniProt P18510 26-177) (ligand)”, the IC50 (pM), inhibition of IL-1B induced IL-6 release in NHDF cells in assay [2] turned out to be 70 pM.
